Experimental data taken from PMC3617563.

Experiments:
[1] = molecular target: K48-linked IQF (internally quenched fluorescence) diubiquitin substrate DiUb48-6 (UniProt P0CG48); test: other fluorescence titration
[2] = molecular target: K48-linked IQF (internally quenched fluorescence) diubiquitin substrate DiUb48-6 (UniProt P0CG48); test: stopped-flow fluorescence

Kd [1]: 270 nM | K1 (association constant of the first step) [2]: 2.33 µM⁻¹ | K2 (equilibrium constant of the second step) [2]: 0.59 | Kd from a fit to a single exponential function [2]: 2.42 µM | k1 (first step, association) [2]: 0.14 µM⁻¹ s⁻¹ | k−1 (first step, dissociation) [2]: 0.06 s⁻¹ | maximum of kobs,2 [2]: 0.57 s⁻¹ | y-intercept of the linear regression of kobs,1 [2]: 0.63 s⁻¹
B1: C276A USP2 catalytic core (inactive active-site mutant) (domain or fragment)
chain: NSKSAQGLAGLRNLGNTAFMNSILQCLSNTRELRDYCLQRLYMRDLHHGSNAHTALVEEFAKLIQTIWTSSPNDVVSPSEFKTQIQRYAPRFVGYNQQDAQEFLRFLLDGLHNEVNRVTLRPKSNPENLDHLPDDEKGRQMWRKYLEREDSRIGDLFVGQLKSSLTCTDCGYCSTVFDPFWDLSLPIAKRGYPEVTLMDCMRLFTKEDVLDGDEKPTCCRCRGRKRCIKKFSIQRFPKILVLHLKRFSESRIRTSKLTTFVNFPLRDLDLREFASENTNHAVYNLYAVSNHSGTTMGGHYTAYCRSPGTGEWHTFNDSSVTPMSSSQVRTSDAYLLFYELASPPSRM
